According to the supplement of paper PMC7877785:
± gives the uncertainty stated by the source.

Assay: self-splicing fitness, log relative to wild type (ln ratio); higher = more splicing; Tetrahymena group I intron in knt gene, E. coli kanamycin selection, DiMSum; sequences stand for … in CUCUCU…GGAGGGAAAAGUUAUCAGGCAUGCACCUGGUAGCUAGUCUUUAAACCAAUAGAUUGCAUCGGUUUAAAAGGCAAGACCGUCAAAUUGCGGGAAAGGGGUCAACAGCCGUUCAGUACCAAGUCUCAGGGGAAACUUUGAGAUGGCCUUGCAAAGGGUAUGGUAAUAAGCUGACGGACAUGGUCCUAACCACGCAGCCAAGUCCUAAGUCAACAGAUCUUCUGUUGAUAUGGAUGCAGUUCACAGACUAAAUGUCGGUCGGGGAAGAUGUAUUCUUCUCAUAAGAUAUAGUCGGACCUCUCCUUAAUGGGAGCUAGCGGAUGAAGUGAUGCAACACUGGAGCCGCUGGGAACUAAUUUGUAUGCGAAAGUAUAUUGAUUAGUUUUGGAGUACUCGUGGUCG
Summary of the method: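 Library with all eight P1ex-region intron nucleotides randomised, intron inside the knt kanamycin-resistance gene on pET-22b(+), in E. coli BL21(DE3). Cells grew overnight at 37°C or 30°C on LB agar with or without 25 μg/mL kanamycin (plus 100 μg/mL carbenicillin, 50 μM IPTG, 0.2% rhamnose), in six replicate transformations. Pooled colonies were amplicon-sequenced on Illumina HiSeq 2500. DiMSum fitness is the error-weighted combination of wild-type-normalised replicate fold changes, kanamycin versus none.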

| Sequence | self-splicing fitness (ln) (30 °C) | self-splicing fitness (ln) (37 °C) |
| --- | --- | --- |
| CCUCAGCAAUAUUACGAGCC | -0.962 ± 0.25 | -0.207 ± 0.41 |
| CCUCAGCAAUAUUACGAUAA | -2.82 ± 0.16 | -3.35 ± 0.32 |
| CCUCAGCAAUAUUACGAUAU | -4.25 ± 0.25 | -0.929 ± 0.15 |
| CCUCAGCAAUAUUACGCCUC | -3.76 ± 0.35 | -1.75 ± 0.31 |
| CCUCAGCAAUAUUACGCUCG | -2.8 ± 0.16 | -2.96 ± 0.24 |
| CCUCAGCAAUAUUACGGGCG | -1.59 ± 0.069 | -0.619 ± 0.074 |
| CCUCAGCAAUAUUACGGUAA | -3.97 ± 0.25 | -2.47 ± 0.18 |
| CCUCAGCAAUAUUACGGUCG | -0.693 ± 0.069 | -0.505 ± 0.089 |
| CCUCAGCAAUAUUACGGUGA | -3.68 ± 0.28 | -2.28 ± 0.2 |
| CCUCAGCAAUAUUACGGUUC | -3.33 ± 0.14 | -3.16 ± 0.27 |
| CCUCAGCAAUAUUACGUACU | -3.42 ± 0.22 | -1.98 ± 0.22 |
| CCUCAGCAAUAUUACGUAUA | -3.44 ± 0.19 | -3.16 ± 0.32 |
| CCUCAGCAAUAUUACGUCAC | -3.97 ± 0.27 | -2.36 ± 0.26 |
| CCUCAGCAAUAUUACGUCUA | -3.41 ± 0.26 | -2.46 ± 0.28 |
| CCUCAGCAAUAUUACGUGCG | -2.51 ± 0.11 | -1.71 ± 0.12 |
| CCUCAGCAAUAUUACGUUCA | -2.61 ± 0.16 | -2.68 ± 0.3 |
| CCUCAGCAAUAUUACGUUGA | -3.03 ± 0.14 | -2.28 ± 0.14 |
| CCUGAGCAAUAUUACGAAGA | -1.76 ± 0.18 | -1.69 ± 0.19 |
| CCUGAGCAAUAUUACGAAGG | -3.87 ± 0.3 | -2.36 ± 0.32 |
| CCUGAGCAAUAUUACGACAG | -1.3 ± 0.14 | -0.663 ± 0.15 |

| Sequence | self-splicing fitness (ln) (30 °C) | self-splicing fitness (ln) (37 °C) |
| --- | --- | --- |
| CCUGAGCAAUAUUACGAGAU | -1.86 ± 0.16 | -2.09 ± 0.23 |
| CCUGAGCAAUAUUACGAGCA | -3.49 ± 0.27 | -3.47 ± 0.3 |
| CCUGAGCAAUAUUACGAGGA | -3.04 ± 0.45 | -1.57 ± 0.18 |
| CCUGAGCAAUAUUACGCCAA | -2.85 ± 0.44 |  |
| CCUGAGCAAUAUUACGCCGC | -2.83 ± 0.5 | 0.153 ± 0.33 |
| CCUGAGCAAUAUUACGCCUU | -2.73 ± 0.28 | -2.01 ± 0.2 |
| CCUGAGCAAUAUUACGCUCG | -2.14 ± 0.43 | -1.7 ± 0.41 |
| CCUGAGCAAUAUUACGGAAU | -4.68 ± 0.23 | -2.85 ± 0.16 |
| CCUGAGCAAUAUUACGGCUA | -1.85 ± 0.33 |  |
| CCUGAGCAAUAUUACGGCUC | -3.81 ± 0.37 | -2.97 ± 0.41 |
| CCUGAGCAAUAUUACGGUAG | -3.11 ± 0.2 | -2.26 ± 0.2 |
| CCUGAGCAAUAUUACGGUGG | -3.67 ± 0.37 | -1.4 ± 0.2 |
| CCUGAGCAAUAUUACGUGGG | -3.25 ± 0.15 | -2.85 ± 0.2 |
| CCUGAGCAAUAUUACGUUUC | -3.69 ± 0.25 | -2.81 ± 0.28 |
| CCUUAGCAAUAUUACGACCC | -2.95 ± 0.44 |  |
| CCUUAGCAAUAUUACGAGUU | -3.96 ± 0.27 | -2.56 ± 0.21 |
| CCUUAGCAAUAUUACGAUAC | -1.67 ± 0.44 |  |
| CCUUAGCAAUAUUACGCACA | -1.93 ± 0.28 | -1.06 ± 0.21 |
| CCUUAGCAAUAUUACGCACU | -2.46 ± 0.41 | -1.29 ± 0.22 |
